Paper PMC3570589
pKd: −log10 of the molar value.

Legend:
Experiment in all cases: ITC
[1] = molecular target: H3_((28–43))K36me3 peptide (UniProt P68431)
[2] = molecular target: H3_((28–43))K36me2 peptide (UniProt P68431)
[3] = molecular target: H3_((28–43))K36me1 peptide (UniProt P68431)
[4] = molecular target: H3_((27–46))K36me3 peptide (UniProt P68431)

Chain of PHF1 Tudor domain protein, wild-type (ITC and silver-stained peptide pull-downs) (O43189 29-86): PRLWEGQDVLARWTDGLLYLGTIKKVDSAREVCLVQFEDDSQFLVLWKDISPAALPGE

PHF1 Tudor domain protein, E66K (from UniProt O43189-1 29-86) (domain or fragment)
Ka [1]: 43900 M⁻¹
pKd [1]: 4.64
dH [1]: -6.47 kcal/mol

PHF1 Tudor domain protein, W41A (from UniProt O43189-1 29-86) (domain or fragment)
Ka [1]: 33200 M⁻¹
pKd [1]: 4.52
dH [1]: -1.35 kcal/mol
stoichiometry N [1]: 0.68

PHF1 Tudor domain protein, wild-type (ITC and silver-stained peptide pull-downs) (from UniProt O43189-1 29-86) (domain or fragment)
Ka [2]: 51800 M⁻¹
pKd [2]: 4.71
dH [2]: -3.99 kcal/mol
stoichiometry N [2]: 0.94
Ka [1]: 238000 M⁻¹
pKd [1]: 5.38
dH [1]: -5.63 kcal/mol
stoichiometry N [1]: 0.79
dH [3]: -0.817 kcal/mol
stoichiometry N [3]: 0.7

PHF19 Tudor domain protein, wild-type (from UniProt Q5T6S3 40-93) (domain or fragment)
pKd [4]: 5.15 to 5.30
